In general, koff refers to a measure of how fast the partners let go of each other. High values mean fast dissociation, low ones slow dissociation.

The results in this text go back to patent US20240409645A1 (DUALYX, published 2024).

Residue numbers refer to the chain shown, from its start.

T1: human IL-2Rβ (human, UniProt P14784 27-240, limits assumed)
T1 construct: Recombinant human IL-2Rβ protein, coated on ELISA plates or immobilized on a CM5 chip; also called hu IL-2R; interleukin 2 receptor β-chain
T1 sequence: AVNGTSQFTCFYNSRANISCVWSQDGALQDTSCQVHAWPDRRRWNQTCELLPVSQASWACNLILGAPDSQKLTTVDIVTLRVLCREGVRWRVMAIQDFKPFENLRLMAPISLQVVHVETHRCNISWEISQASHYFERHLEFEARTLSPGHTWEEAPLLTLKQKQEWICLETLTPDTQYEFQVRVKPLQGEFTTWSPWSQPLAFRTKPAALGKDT

T2: human IL-2Rγ (common cytokine receptor γ-chain) (human, UniProt P31785 23-262, limits assumed)
T2 construct: Recombinant protein coated on the plate or immobilised on a CM5 chip; also called hu IL-2R; CD132
T2 sequence: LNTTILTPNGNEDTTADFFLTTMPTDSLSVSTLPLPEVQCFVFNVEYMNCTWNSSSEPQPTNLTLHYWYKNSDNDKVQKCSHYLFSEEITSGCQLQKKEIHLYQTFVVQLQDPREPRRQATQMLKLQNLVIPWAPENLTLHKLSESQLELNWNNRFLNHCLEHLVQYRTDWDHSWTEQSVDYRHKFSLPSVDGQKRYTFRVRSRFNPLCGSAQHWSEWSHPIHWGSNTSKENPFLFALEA

T3: mouse IL-2Rγ (mouse, UniProt P34902 23-263)
T3 construct: also called mo IL-2R
T3 sequence (looked up): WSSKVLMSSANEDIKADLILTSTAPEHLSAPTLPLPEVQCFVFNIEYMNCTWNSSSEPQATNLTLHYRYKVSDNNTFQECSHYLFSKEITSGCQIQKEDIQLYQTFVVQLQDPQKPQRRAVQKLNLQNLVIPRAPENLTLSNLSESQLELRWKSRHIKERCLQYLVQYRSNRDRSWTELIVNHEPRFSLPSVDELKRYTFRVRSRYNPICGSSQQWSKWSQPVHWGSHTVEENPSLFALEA

B1: FJ1427 P035MP06A08 (VHH)
VHH: EVQLVESGGGLVQAGESLRLSCAASGQYFSTYSMAWFRRTPGKEREFVTIISESGGIKEYVDSVKGRFTVSRDNAKNTVYLQMNSLKPEDTAVYYCAAARDWFARNEYQYDYWGQGTQVTVSS
notes: Soluble VHH in periplasmic extract (P.E.); also called Clone nr
B2: FJ1427_P035MP06F09 (VHH)
VHH: QVQLVESGGGLVQAGGSLTLSCAASGRAFSNYPVGWFRQAPGKEREFVAAITWLSGSTLYADSVEGRFTISRDNAKNTVYLLMSSLKPEDTALYFCAAALKTITRGQNDYSYWGQGTQVTVSS
notes: Soluble VHH in periplasmic extract (P.E.); also called Clone nr; 550
B3: FJ1427_P035MP06C10 (VHH)
VHH: QVQLVESGGGLVQAGGSLRLSCAVSGDVFVRYTMAWFRQAPGKEREFVASVTDSGRTTEYVDSVKGRFTVSRDNAKNTAYLQMNNLKPEDTAVYYCAANTDYFQIRSLDLNTWGQGTQVTVSS
notes: Soluble VHH in periplasmic extract (P.E.); also called Clone nr; 555
B4: FJ1427_P035MP04D01 (VHH)
VHH: QVQLVESGGGLVQAGGSLRLSCAASGRTLSRYAMGWFRQAPGKEREFVTANSWGGDTYYADSVQGRFTFSRDNAKNTVYLQMNSLQPEDTAVYYCAAAPTSFATTAYSSSNSYAYWGQGTQVTVSS
notes: VHH in periplasmic extract; also called clone nr
B5: FJ1427_P035MP04D03 (VHH)
VHH: B4 VHH with Q1E, G15E
notes: as for B4
B6: FJ1427_P035MP04D06 (VHH)
VHH: B4 VHH with T28A, Y32L, T49V, N51S, G55D, Y58F, Q64K, E88G
notes: as for B4
B7: 34-MP04A12 (VHH)
VHH: B4 VHH with G16S, Y32L, T49A, A50V, Y58F, Q64E, F69Y, N76S, T77A, T120A
notes: VHH in periplasmic extract; also called FJ1427_P035MP04A12; clone nr
B8: FJ1427_P035MP04B05 (VHH)
VHH: B4 VHH with Q1E
notes: as for B4
B9: 28-MP04D02 (VHH)
VHH: B4 VHH with S109G
notes: VHH in periplasmic extract; also called FJ1427_P035MP04D02; clone nr; 300
B10: FJ1427_P035MP04G04 (VHH)
VHH: B4 VHH with M34V, Y58F, Q86L, T90A, A114K, Y115V
notes: as for B4
B11: 37-MP07F09 (VHH)
VHH: B4 VHH with F47Y, T49A, A50I, N51D, Y58F, Q64E, T77E, A97G, A114R
notes: VHH in periplasmic extract; also called FJ1427_P035MP07F09; clone nr
B12: FJ1427_P035MP04A01 (VHH)
VHH: B4 VHH with Q1E
notes: as for B4
B13: FJ1427_P035MP04E09 (VHH)
VHH: B4 VHH with F67S
notes: as for B4
B14: FJ1427_P035MP04B08 (VHH)
VHH: B4 VHH with A23V
notes: as for B4
B15: FJ1427_P035MP04C06 (VHH)
VHH: B4 VHH with Q1E
notes: as for B4
B16: FJ1427_P035MP04F03 (VHH)
VHH: B4 VHH with Y32N, T49A, N51D, Y58F, Q64E, T77A, A97G, A114R
notes: VHH in periplasmic extract; also called clone nr; 310
B17: FJ1427_P035MP04C04 (VHH)
VHH: B4 VHH with Q1E
notes: as for B4
B18: FJ1427_P035MP04A06 (VHH)
VHH: B4 VHH with A14P
notes: as for B4
B19: FJ1427_P035MP04F07 (VHH)
VHH: B4 VHH with Q1E
notes: as for B4
B20: FJ1427_P035MP04E07 (VHH)
VHH: B4 VHH with E46D, T49A, N51T, Q64E, T77A
notes: as for B4
B21: 31-MP04E03 (VHH)
VHH: QVQLVESGGGLVQAGGSLRLSCTGYGGAFTGYALGWFRQAPGKEREFVARINWSGSFTYYASSVKGRFTISRDNAKNTMYLQMNNLKPEDTAVYYCAADNPSTLATDYDNWGQGTQVTVSS
notes: VHH in periplasmic extract; also called FJ1427_P035MP04E03; clone nr

The target of the first test is T1, human IL-2Rβ. The experiment in a line: P.E. binding ELISA, human IL-2Rβ coated. Here is the method:
In a binding ELISA, human or mouse IL-2Rα, IL-2Rβ and IL-2Rγ proteins were coated directly on maxisorp microtiter plates overnight at 4° C. Free binding sites were blocked using 4% Marvel in PBS for 1 hour. Next, 1:5 dilution of P.E. in 1% Marvel/PBS were added to wells and incubated for 1 hour. […] Binding specificity was determined based on O.D. at 450 nm values compared to negative controls.
(In general: In an ELISA, binding on a coated surface is turned into a signal by an enzyme label.)
With B1, the “OD450 nm (P.E. binding ELISA)” value was 0.44 OD450 nm.
Take B2: the “OD450 nm (P.E. binding ELISA)” value turned out to be 0.564 OD450 nm.
Still for that read-out and setting: then B3, with 0.358 OD450 nm.

The target of a further test is T1, human IL-2Rβ. The experiment in a line: SPR off-rate ranking of P.E., human IL-2Rβ immobilized. The method, then:
SPR was performed to determine dissociation rates using Biacore 3000 instrument (GE Healthcare). Briefly, human and mouse IL-2R proteins were immobilized on carboxylmethyl dextran sensor chip (CM5) at approximately 2500 RUs using amine coupling in acetate buffer (GE Healthcare). The VHH-containing P.E. were loaded with a flow rate of 30 uL/min and the off-rates were measured over a 120s period.
B1 registered an off-rate constant (koff) of 0.000497 s⁻¹.
Molecule B2 had an off-rate constant (koff) of 0.000147 s⁻¹.
The same measure, in the same setting: under B3 stands 0.000208 s⁻¹.

Another test has as its target T2, human IL-2Rγ (common cytokine receptor …). The experiment in a line: PE binding ELISA, periplasmic extract on coated protein. The method in brief: (§1)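 Human or mouse IL-2Rα, IL-2Rβ or IL-2Rγ protein coated directly overnight at 4° C, blocked with 4% Marvel/PBS for 1 hour.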
Turning to B4, the “OD (PE binding ELISA)” value was found to be 1.02 OD450 nm.
In the case of B5, the “OD (PE binding ELISA)” value was 1.66 OD450 nm.
With B6, the “OD (PE binding ELISA)” value was determined as 2.1 OD450 nm.
On the same count and under the same terms, then B7, with 1.3 OD450 nm; and B8, with 1.49 OD450 nm.
Same read-out and setting: under B9 stands 0.782 OD450 nm; under B10, 1.67 OD450 nm.
On the same count and under the same terms, then B11, with 1.81 OD450 nm; and B12, with 0.867 OD450 nm.
Regarding B13, the “OD (PE binding ELISA)” value worked out at 0.652 OD450 nm.
Same read-out and setting: under B14 stands 1.44 OD450 nm; under B15, 0.797 OD450 nm.
As for B16, the “OD (PE binding ELISA)” value came to 1.77 OD450 nm.
Same read-out and setting: then B17, with 1.43 OD450 nm.
On to B18, for which the “OD (PE binding ELISA)” value worked out at 0.898 OD450 nm.
The same measure, in the same setting: under B19 stands 0.789 OD450 nm; under B20, 0.919 OD450 nm.

The next test has as its target T3, mouse IL-2Rγ. The description is as above. The method in brief: as §1
For B21, the “OD (PE binding ELISA)” value turned out to be 0.495 OD450 nm.
Take B4: the “OD (PE binding ELISA)” value was determined as 0.066 OD450 nm.
On to B5, for which the “OD (PE binding ELISA)” value was 0.063 OD450 nm.
Same read-out and setting: then B6, with 0.637 OD450 nm; and B7, with 3.6 OD450 nm.
For B8, the “OD (PE binding ELISA)” value came to 0.063 OD450 nm.
On to B9, for which the “OD (PE binding ELISA)” value worked out at 0.054 OD450 nm.
On the same count and under the same terms, under B10 stands 0.276 OD450 nm.
In the case of B11, the “OD (PE binding ELISA)” value was determined as 1.49 OD450 nm.
Same read-out and setting: under B12 stands 0.06 OD450 nm.
For B13, the “OD (PE binding ELISA)” value stood at 0.07 OD450 nm.
Still for that read-out and setting: then B14, with 0.075 OD450 nm; and B15, with 0.061 OD450 nm; and B16, with 0.3 OD450 nm.
In the case of B17, the “OD (PE binding ELISA)” value is 0.063 OD450 nm.
As to B18, the “OD (PE binding ELISA)” value stood at 0.063 OD450 nm.
Regarding B19, the “OD (PE binding ELISA)” value amounted to 0.064 OD450 nm.
On to B20, for which the “OD (PE binding ELISA)” value worked out at 0.079 OD450 nm.

The target of the next test is T2, human IL-2Rγ (common cytokine receptor …). Put plainly: SPR off-rate ranking, periplasmic extract on immobilised protein. In short, it runs like this:
(§2)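 Recombinant receptor was amine-coupled in acetate buffer onto a CM5 carboxymethyl dextran chip at approximately 2500 RU. VHH-containing periplasmic extracts were injected at 30 uL/min, and dissociation was followed for 120s to give off-rates.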
B4 showed a koff of 0.00182 s⁻¹.
The same measure, in the same setting: under B5 stands 0.00143 s⁻¹; under B6, 0.00145 s⁻¹; under B7, 0.000333 s⁻¹.
In the case of B8, the koff turned out to be 0.00292 s⁻¹.
Same read-out and setting: under B9 stands 0.0088 s⁻¹.
On the same count and under the same terms, under B10 stands 0.00122 s⁻¹; under B11, 0.00126 s⁻¹.
In turn, B12 yielded a koff of 0.00156 s⁻¹. This koff and that of the molecule before are within 1.5-fold of each other.
Still for that read-out and setting: under B13 stands 0.00162 s⁻¹.
The same measure, in the same setting: under B14 stands 0.00205 s⁻¹; under B15, 0.00201 s⁻¹.
In the case of B16, the off-rate constant (koff) came to 0.00074 s⁻¹. This koff lies about 2.7-fold lower than the previous one.
In turn, B17 showed an off-rate constant (koff) of 0.00214 s⁻¹.
B18 yielded a koff of 0.00283 s⁻¹.
Same read-out and setting: then B19, with 0.00249 s⁻¹; and B20, with 0.00189 s⁻¹.

Another test has as its target T3, mouse IL-2Rγ. Described as above. In short, it runs like this: as §2
With B21, the koff stood at 0.283 s⁻¹.
The same measure, in the same setting: then B4, with 0.113 s⁻¹.
The same measure, in the same setting: then B5, with 0.168 s⁻¹; and B6, with 0.0137 s⁻¹.
Same read-out and setting: then B7, with 0.00809 s⁻¹; and B8, with 0.138 s⁻¹.
On to B9, for which the koff came to 0.319 s⁻¹.
B10 came in with a koff of 0.0666 s⁻¹.
As for B11, the koff stood at 0.007 s⁻¹.
For B12, the koff was found to be 0.132 s⁻¹.
Same read-out and setting: then B13, with 0.109 s⁻¹.
Molecule B14 registered a koff of 0.113 s⁻¹.
B15 showed a koff of 0.0465 s⁻¹.
On the same count and under the same terms, under B16 stands 0.061 s⁻¹.
Same read-out and setting: then B17, with 0.151 s⁻¹.
The molecule B18 gave a koff of 0.113 s⁻¹.
Still for that read-out and setting: then B19, with 0.156 s⁻¹; and B20, with 0.215 s⁻¹.
